Bridges are numbered along the chain shown (N, C = ends). Where no end group is shown, it is not given here.
What was measured:
[1] = Morphologic analysis of aggregation products by transmission electron microscopy (TEM); format: physicochemical; conditions: negative stain 2% uranyl acetate; products of the aggregation kinetics
From the text: Samples from aggregation kinetic assay were applied to 300 mesh, Formvar-carbon-coated Cu grids (Electron Microscopy Science, USA), followed by negative stain with 2% uranyl acetate, pH 4.8, for 30–60 s.
(§1) Scale bar = 200 nm. The raw data can be found in S2 File.

[2] = Amylin aggregation by ThT fluorescence, up to 7 days in PBS pH 7.4; format: physicochemical; conditions: PBS pH 7.4, 25°C, followed up to 7 days
Procedure: In this case, at the indicated time 160 μL sample were mixed with 40 μL ThT 100 μM. In both cases the thioflavin T fluorescence was measured by setting excitation at 450 nm and emission at 482 nm. […] The aggregation curves were fitted using a 4 parameter logistic function and the t1/2, elongation rate and lag time were estimated as described elsewhere.
as §1

[3] = molecular target: T1, Fluorescein-Labelled Murine Amylin (Mus musculus, UniProt P12968); experiment: Isothermal binding assay, fluorescence anisotropy (amylin self-assembly); conditions: PBS pH 7.4, 25°C; for Anisotropy: 50 nM labelled murine amylin, mean of five measurements
T1 sequence (P12968 38-74 limits assumed): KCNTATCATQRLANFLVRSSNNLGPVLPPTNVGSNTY
Procedure: (§2) The proteins (CTR, RAMP and murine amylin) were labeled with fluorescein isothiocyanate (FITC; Sigma-Aldrich; 0.2 mM final concentration, from stock in DMSO at 5 mM freshly prepared) in 20 mM Na2HPO4, 300 mM NaCl, pH 7.0, for 60 min at 25°C protected from light. The reaction was quenched by adding an excess of Tris-HCl. The free fluorescein was removed by chromatography with a Sephadex G25 desalting column (GE Healthcare, Brazil). The labeling efficiency, final yield and protein quantification were calculated as described elsewhere. The labeling efficiency was below 1 mol FITC:1 mol protein for all labeling procedures. Labeled proteins were stored until use protected from light at -20°C for no longer than 3 months.
(§3) The fluorescence measurements were conducted in a Spectramax M5 (Molecular Devices) microplate reader, with excitation and emission set at 480 nm and 520 nm respectively, with cut-off filter 515 nm. The results represent the mean and the standard error of the mean (SEM) of five measurements. Binding data analysis was performed with SigmaPlot 12.5 (Systat Software, Inc., CA, USA).
(§4) Fig 4 Amylin self-assembly and interaction with co-receptors. […] Assays were conducted in PBS, pH 7.4, 25°C, in the presence of 50 nM FITC-labelled proteins (amylin, CTR–1 or RAMP–3). Ex 480 nm, Em 520 nm, filter 515 nm. The raw data can be found in S2 File.

[4] = Amylin aggregation kinetics by ThT fluorescence, up to 12 h at varying pH; format: physicochemical; conditions: 50 μM peptide, 10 mM buffer, 20 μM ThT, 2% DMSO, 25°C
[5] = Pharmacokinetics after subcutaneous administration in mice (serum amylin by ELISA); format: in vivo
Procedure: Swiss male mice (8 weeks old; n = 4 per group) were administrated of free or monoPEGylated human amylin (both at 400 μg peptide / kg body weight) by subcutaneous route. At the indicated time interval, blood was collected with glass capillary tubes from retro-orbital access and the serum was separated. The concentration of amylin in the plasma was evaluated by ELISA (Merck Millipore, cat # EZHA-52K) by following the manufacturer protocol. The sensitivity of the ELISA assay kit for the monoPEGylated human amylin product was similar to the non-conjugated human amylin as inferred from control analytical curves. In case needed, the mice plasma samples were diluted accordingly in order to achieve the desired concentration range of the ELISA kit. Glucagon was evaluated from the same serum samples, by using an ELISA kit (Merck Millipore, Cat # EZGLU-30K) according to instructions of the manufacturer.
Continuous lines are best fitting of single-exponential decay function to data. b) Modulation of glucagon. […] The raw data can be found in S2 File.

[6] = molecular target: T2, human receptor-activity modifying protein 3 Extracellular Topological Domain (RAMP3-ETD), fluorescein-labelled (Homo sapiens, UniProt O60896); experiment: Isothermal binding assay, fluorescence anisotropy, RAMP-3; conditions: for Anisotropy: 50 nM labelled RAMP-3, PBS pH 7.4, 25°C, mean of five measurements
T2 construct: RAMP3-ETD; residues 28–117; UNIPROT identifier O60896; His tag (N); thrombin cleavage site (N); made in house; host or cells: E. coli BL21DE3pLys
T2 sequence (O60896 28-117): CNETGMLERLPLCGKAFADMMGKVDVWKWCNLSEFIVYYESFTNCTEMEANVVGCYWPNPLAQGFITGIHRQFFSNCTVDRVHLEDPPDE
From the text: The human receptor-activity modifying protein 3 Extracellular Topological Domain (RAMP3-ETD; residues 28–117; UNIPROT identifier O60896; Sequence in S1 File) was obtained by heterologous production in E. coli and further purified from inclusion bodies. The synthetic DNA sequence encoding the RAMP3-ETD of RAMP3 was cloned into bacterial protein expression vector pET28b (Novagen/EMD Millipore) from the synthetic gene using NdeI and EcoRI. The sequence and identity of the gene in the pET28b-RAMP3 construct was confirmed with DNA sequencing. The gene synthesis, cloning and sequencing services were provided by GenScript Corporation (Piscataway, NJ, USA).
RAMP3 was produced and purified as described previously for the homologous protein RAMP2 [56]. The RAMP3-ETD was produced as a fusion protein containing an N-terminal histidine tag and a thrombin protease cleavage site, by heterologous expression in E. coli BL21DE3pLys (1 mM IPTG, 37°C, 3 h). […] The purified RAMP3-ETD was refolded by rapid dilution into cold buffer 50 mM sodium phosphate buffer (pH 8.3) containing 1 M arginine hydrochloride, 5 mM reduced glutathione, 1 mM oxidized glutathione, and 1 mM EDTA and left stand for 24 h at 4°C. After refolding, RAMP3-ETD was dialyzed, concentrated in AMICON (Millipore, Brazil), and stored in 20 mM sodium phosphate buffer and 500 mM NaCl, pH 7.0, in liquid nitrogen until use. Purity was over 95% as judged by SDS-PAGE, routine size-exclusion chomatography and MALDI-ToF-MS. The purified RAMP3 was quantified by absorbance at 280 nm, using 21,345 M^-1cm^−1 as extinction coefficient.
as §2, §3, §4

[7] = (unit not given), Swiss male mice, s.c., 400 μg peptide/kg

## PEGylated human amylin: human amylin monoconjugated at the N-terminal Lys1 region with 5 kDa methoxyl polyethylene glycol succinimidyl carbonate (mPEGsc5k) (KCNTATCATQRLANFLVHSSNNFGAILSSTNVGSNTY-NH2; disulfide 2-7; also: one mPEG 5 kDa (mPEGsc5k) on a Lys1 amino group)
[1]
  fibrils by TEM after aggregation assay: no fibrils were observed
[2]
  changes in ThT fluorescence up to 7 days: only minor changes in ThT fluorescence
[3]; fluorescence anisotropy, 50 nM FITC-labelled protein
  self-assembly with amylin (in words): PEGylation did not abolish the assembly
[3]; ligand 0.0492 µM
  Anisotropy: 0.0707
[3]; ligand 0.1229 µM
  Anisotropy: 0.0637
[3]; ligand 0.3072 µM
  Anisotropy: 0.0575
[3]; ligand 0.768 µM
  Anisotropy: 0.0698
[3]; ligand 1.92 µM
  Anisotropy: 0.0836
[3]; ligand 4.8 µM
  Anisotropy: 0.232
[3]; ligand 12 µM
  Anisotropy: 0.2936
[3]; ligand 30 µM
  Anisotropy: 0.27
[4]
  changes in ThT fluorescence in the 12 h time window: did not observe changes in fluorescence
[5]; [7]
  Half Life (One phase decay, best-fit value): 2.988
  Tau (One phase decay, best-fit value): 4.311
[5]; male, Swiss, mouse, in vivo, sc
  half-life in vivo: 2.98 h
[6]; fluorescence anisotropy, PBS pH 7.4, 25°C, 50 nM FITC-labelled protein
  binding to coreceptor RAMP3 (in words): PEGylation did not abolish the assembly
[6]; ligand 0.0492 µM
  Anisotropy: 0.0481
[6]; ligand 0.1229 µM
  Anisotropy: 0.0421
[6]; ligand 0.3072 µM
  Anisotropy: 0.0449
[6]; ligand 0.768 µM
  Anisotropy: 0.0486
[6]; ligand 1.92 µM
  Anisotropy: 0.0614
[6]; ligand 4.8 µM
  Anisotropy: 0.1188
[6]; ligand 12 µM
  Anisotropy: 0.2199
[6]; ligand 30 µM
  Anisotropy: 0.1286
